Source: article doi:10.1101/2025.05.22.655486 (bioRxiv, 2025)

What was measured:
[1] = molecular target: T1, Ectodomain of Arabidopsis thaliana MIK2, TwinStrep- and HA-tagged (Arabidopsis thaliana, UniProt Q8VZG8 44-709); assay: ligand-depletion assay
T1 sequence (looked up): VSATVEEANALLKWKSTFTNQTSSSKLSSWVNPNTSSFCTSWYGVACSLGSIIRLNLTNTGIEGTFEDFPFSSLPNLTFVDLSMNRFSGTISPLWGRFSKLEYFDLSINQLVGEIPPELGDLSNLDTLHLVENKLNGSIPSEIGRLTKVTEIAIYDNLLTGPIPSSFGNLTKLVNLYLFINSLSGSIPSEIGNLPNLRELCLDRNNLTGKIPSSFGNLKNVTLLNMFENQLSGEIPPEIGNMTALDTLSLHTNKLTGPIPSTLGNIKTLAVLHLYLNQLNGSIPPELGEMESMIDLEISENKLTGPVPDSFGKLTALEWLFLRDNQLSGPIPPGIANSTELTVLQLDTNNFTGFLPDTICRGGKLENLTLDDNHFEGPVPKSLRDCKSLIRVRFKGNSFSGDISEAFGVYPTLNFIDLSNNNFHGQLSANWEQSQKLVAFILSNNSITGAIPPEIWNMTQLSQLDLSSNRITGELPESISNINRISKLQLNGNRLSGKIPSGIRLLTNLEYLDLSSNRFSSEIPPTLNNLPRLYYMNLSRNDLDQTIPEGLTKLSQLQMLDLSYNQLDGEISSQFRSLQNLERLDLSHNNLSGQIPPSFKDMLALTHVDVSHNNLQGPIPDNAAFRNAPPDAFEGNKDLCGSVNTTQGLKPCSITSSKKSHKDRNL

[2] = molecular target: Ectodomain of Arabidopsis thaliana FLAGELLIN-SENSING 2, TwinStrep- and HA-tagged (Arabidopsis thaliana, UniProt Q9FL28 24-806); assay: ligand-depletion assay
Chain of Ectodomain of Arabidopsis thaliana FLAGELLIN-SENSING 2, TwinStrep- and HA-tagged (Q9FL28 24-806): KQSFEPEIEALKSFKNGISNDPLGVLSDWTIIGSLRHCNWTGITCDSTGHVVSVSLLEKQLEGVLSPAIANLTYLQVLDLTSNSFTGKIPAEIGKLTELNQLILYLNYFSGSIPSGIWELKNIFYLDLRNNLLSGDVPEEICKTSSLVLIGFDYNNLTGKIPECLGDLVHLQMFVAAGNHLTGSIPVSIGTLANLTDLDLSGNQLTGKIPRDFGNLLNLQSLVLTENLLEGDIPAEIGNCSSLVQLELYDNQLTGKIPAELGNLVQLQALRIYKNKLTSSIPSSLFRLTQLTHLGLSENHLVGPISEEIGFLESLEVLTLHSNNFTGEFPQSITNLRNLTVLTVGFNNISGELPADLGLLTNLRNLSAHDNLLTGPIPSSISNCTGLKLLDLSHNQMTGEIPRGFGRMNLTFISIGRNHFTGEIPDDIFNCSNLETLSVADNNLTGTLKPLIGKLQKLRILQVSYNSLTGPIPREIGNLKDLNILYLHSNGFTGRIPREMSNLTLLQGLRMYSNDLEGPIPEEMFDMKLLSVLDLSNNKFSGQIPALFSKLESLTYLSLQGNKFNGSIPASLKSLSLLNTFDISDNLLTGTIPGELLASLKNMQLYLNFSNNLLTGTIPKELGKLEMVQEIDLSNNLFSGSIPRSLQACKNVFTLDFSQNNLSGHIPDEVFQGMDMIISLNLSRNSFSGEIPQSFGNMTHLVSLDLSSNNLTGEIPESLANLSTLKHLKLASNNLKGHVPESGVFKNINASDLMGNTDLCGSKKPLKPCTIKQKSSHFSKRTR

B1: AtSCOOP12 (SERINE-RICH ENDOGENOUS PEPTIDE 12) (peptide)
peptide: PVRSSQSSQAGGR
B1: binds [1].

B2: flg22 peptide (peptide)
peptide: QRLSTGSRINSAKDDAAGLQIA
B2: binds [2].
